From PMC7687889

Target: human EphA2 ligand-binding domain (LBD) (human) (UniProt P29317)
Assay: SPR

KSHV gHgL (Kaposi sarcoma-associated herpesvirus glycoprotein H / glycoprotein L complex), sequence (F5HAK9 22-698): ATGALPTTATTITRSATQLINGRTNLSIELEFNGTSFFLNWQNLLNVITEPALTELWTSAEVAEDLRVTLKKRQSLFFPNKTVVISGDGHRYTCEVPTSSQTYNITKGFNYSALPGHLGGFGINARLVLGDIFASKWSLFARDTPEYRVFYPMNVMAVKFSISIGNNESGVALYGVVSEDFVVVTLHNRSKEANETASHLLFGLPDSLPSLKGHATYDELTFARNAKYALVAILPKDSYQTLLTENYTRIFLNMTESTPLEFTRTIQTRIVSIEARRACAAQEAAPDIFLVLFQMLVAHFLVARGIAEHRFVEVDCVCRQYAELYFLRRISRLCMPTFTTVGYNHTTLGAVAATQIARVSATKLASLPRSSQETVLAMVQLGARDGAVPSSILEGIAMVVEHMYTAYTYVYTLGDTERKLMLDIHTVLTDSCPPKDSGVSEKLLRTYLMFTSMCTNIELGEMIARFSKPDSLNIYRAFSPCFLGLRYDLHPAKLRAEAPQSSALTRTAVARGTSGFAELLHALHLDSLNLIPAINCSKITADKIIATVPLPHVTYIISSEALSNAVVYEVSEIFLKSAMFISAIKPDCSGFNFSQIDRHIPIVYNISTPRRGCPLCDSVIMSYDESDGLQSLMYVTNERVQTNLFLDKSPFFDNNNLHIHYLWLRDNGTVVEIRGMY
KSHV gHgL (Kaposi sarcoma-associated herpesvirus glycoprotein H / glycoprotein L complex), sequence (F5HDB7 21-167): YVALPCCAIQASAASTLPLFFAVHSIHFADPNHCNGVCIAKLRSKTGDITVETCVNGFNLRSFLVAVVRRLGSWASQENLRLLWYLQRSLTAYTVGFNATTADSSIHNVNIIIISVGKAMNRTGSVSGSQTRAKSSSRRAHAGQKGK
EBV gHgL (Epstein-Barr virus glycoprotein H / glycoprotein L complex), sequence (P03231 18-679): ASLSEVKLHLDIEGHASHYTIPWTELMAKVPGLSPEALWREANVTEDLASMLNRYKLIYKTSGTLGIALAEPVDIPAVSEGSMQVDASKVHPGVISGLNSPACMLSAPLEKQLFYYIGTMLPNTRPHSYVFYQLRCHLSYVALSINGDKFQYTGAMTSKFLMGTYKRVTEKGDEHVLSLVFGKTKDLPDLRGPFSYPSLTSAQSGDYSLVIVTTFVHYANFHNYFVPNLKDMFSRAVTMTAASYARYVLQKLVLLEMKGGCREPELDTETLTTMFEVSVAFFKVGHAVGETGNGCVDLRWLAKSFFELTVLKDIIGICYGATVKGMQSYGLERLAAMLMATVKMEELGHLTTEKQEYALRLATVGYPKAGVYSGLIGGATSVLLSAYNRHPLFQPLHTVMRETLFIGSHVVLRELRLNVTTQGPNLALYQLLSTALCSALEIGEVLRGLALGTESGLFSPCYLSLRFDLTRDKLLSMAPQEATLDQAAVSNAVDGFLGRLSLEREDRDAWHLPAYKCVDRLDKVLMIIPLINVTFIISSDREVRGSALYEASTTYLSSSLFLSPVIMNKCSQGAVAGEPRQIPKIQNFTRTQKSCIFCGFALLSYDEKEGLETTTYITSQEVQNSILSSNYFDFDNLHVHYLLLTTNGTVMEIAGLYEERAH
EBV gHgL (Epstein-Barr virus glycoprotein H / glycoprotein L complex), sequence (P03212 24-137): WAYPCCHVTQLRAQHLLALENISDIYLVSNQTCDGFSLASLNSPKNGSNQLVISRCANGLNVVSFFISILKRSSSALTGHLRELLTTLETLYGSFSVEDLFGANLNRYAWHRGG

## EBV gHgL (Epstein-Barr virus glycoprotein H / glycoprotein L complex) (from UniProt P03231;P03212)
  Kd: 4120 nM

## KSHV gHgL (Kaposi sarcoma-associated herpesvirus glycoprotein H / glycoprotein L complex) (from UniProt F5HAK9;F5HDB7)
  Kd: 17.5 nM
